Measured values published in the Human Domainome abundance scans (Beltran et al. 2025).
± gives the uncertainty stated by the source.

B1: Far upstream element-binding protein 1, residues 184 to 257; numbered along this chain, Q96AE4 (parent)
chain: GNAVQEIMIPASKAGLVIGKGGETIKQLQERAGVKMVMIQDGPQNTGADKPLRITGDPYKVQQAKEMVLELIRD

Variants of: B1
Assay: abundance fitness (aPCA) (normalised: wild type 0, dead -1); higher = more abundant; growth selection in yeast, the domain comes from the species named
Details: Homo sapiens

First: GNAVQEIMIPASKAGLVIGKGGETIKQLQERFGVKMVMIQDGPQNTGADKPLRITGDPYKVQQAKEMVLELIRD [A32F]
Second: GNAVQEIMIPASKAGLVIGKGGETIKQLQERGGVKMVMIQDGPQNTGADKPLRITGDPYKVQQAKEMVLELIRD [A32G]
The abundance fitness of the first is higher: 0.054 ± 0.046 for the first, -0.075 ± 0.03 for the second.

GNAVQEIMIPASKAGLVIGKGGETIKQLQERHGVKMVMIQDGPQNTGADKPLRITGDPYKVQQAKEMVLELIRD [A32H] and GNAVQEIMIPASKAGLVIGKGGETIKQLQERIGVKMVMIQDGPQNTGADKPLRITGDPYKVQQAKEMVLELIRD [A32I] are within error of each other in abundance fitness: 0.031 ± 0.052 for the first, -0.034 ± 0.052 for the second.

Compared with GNAVQEIMIPASKAGLVIGKGGETIKQLQERKGVKMVMIQDGPQNTGADKPLRITGDPYKVQQAKEMVLELIRD [A32K], GNAVQEIMIPASKAGLVIGKGGETIKQLQERLGVKMVMIQDGPQNTGADKPLRITGDPYKVQQAKEMVLELIRD [A32L] is higher in abundance fitness: -0.171 ± 0.046 for the first, -0.017 ± 0.031 for the second.

GNAVQEIMIPASKAGLVIGKGGETIKQLQERMGVKMVMIQDGPQNTGADKPLRITGDPYKVQQAKEMVLELIRD [A32M] and GNAVQEIMIPASKAGLVIGKGGETIKQLQERNGVKMVMIQDGPQNTGADKPLRITGDPYKVQQAKEMVLELIRD [A32N] are within error of each other in abundance fitness: -0.009 ± 0.042 for the first, 0.029 ± 0.051 for the second.

Going from GNAVQEIMIPASKAGLVIGKGGETIKQLQERPGVKMVMIQDGPQNTGADKPLRITGDPYKVQQAKEMVLELIRD [A32P] to GNAVQEIMIPASKAGLVIGKGGETIKQLQERQGVKMVMIQDGPQNTGADKPLRITGDPYKVQQAKEMVLELIRD [A32Q], the abundance fitness rises from -0.706 ± 0.046 to -0.077 ± 0.04.

Going from GNAVQEIMIPASKAGLVIGKGGETIKQLQERRGVKMVMIQDGPQNTGADKPLRITGDPYKVQQAKEMVLELIRD [A32R] to GNAVQEIMIPASKAGLVIGKGGETIKQLQERSGVKMVMIQDGPQNTGADKPLRITGDPYKVQQAKEMVLELIRD [A32S], the abundance fitness rises from -0.367 ± 0.031 to -0.013 ± 0.032.

Compared with GNAVQEIMIPASKAGLVIGKGGETIKQLQERTGVKMVMIQDGPQNTGADKPLRITGDPYKVQQAKEMVLELIRD [A32T], GNAVQEIMIPASKAGLVIGKGGETIKQLQERVGVKMVMIQDGPQNTGADKPLRITGDPYKVQQAKEMVLELIRD [A32V] is lower in abundance fitness: 0.02 ± 0.035 for the first, -0.062 ± 0.033 for the second.

GNAVQEIMIPASKAGLVIGKGGETIKQLQERWGVKMVMIQDGPQNTGADKPLRITGDPYKVQQAKEMVLELIRD [A32W] and GNAVQEIMIPASKAGLVIGKGGETIKQLQERYGVKMVMIQDGPQNTGADKPLRITGDPYKVQQAKEMVLELIRD [A32Y] are within error of each other in abundance fitness: -0.057 ± 0.037 for the first, -0.016 ± 0.051 for the second.

GNAVQEIMIPASKAGLVIGKGGETIKQLQERAAVKMVMIQDGPQNTGADKPLRITGDPYKVQQAKEMVLELIRD [G33A] and GNAVQEIMIPASKAGLVIGKGGETIKQLQERACVKMVMIQDGPQNTGADKPLRITGDPYKVQQAKEMVLELIRD [G33C] are within error of each other in abundance fitness: -0.171 ± 0.032 for the first, -0.125 ± 0.042 for the second.

GNAVQEIMIPASKAGLVIGKGGETIKQLQERADVKMVMIQDGPQNTGADKPLRITGDPYKVQQAKEMVLELIRD [G33D] and GNAVQEIMIPASKAGLVIGKGGETIKQLQERAEVKMVMIQDGPQNTGADKPLRITGDPYKVQQAKEMVLELIRD [G33E] are within error of each other in abundance fitness: -0.083 ± 0.044 for the first, -0.081 ± 0.034 for the second.

First: GNAVQEIMIPASKAGLVIGKGGETIKQLQERAFVKMVMIQDGPQNTGADKPLRITGDPYKVQQAKEMVLELIRD [G33F]
Second: GNAVQEIMIPASKAGLVIGKGGETIKQLQERAHVKMVMIQDGPQNTGADKPLRITGDPYKVQQAKEMVLELIRD [G33H]
The abundance fitness of the first is lower: -0.43 ± 0.052 for the first, -0.1 ± 0.058 for the second.

Going from GNAVQEIMIPASKAGLVIGKGGETIKQLQERAIVKMVMIQDGPQNTGADKPLRITGDPYKVQQAKEMVLELIRD [G33I] to GNAVQEIMIPASKAGLVIGKGGETIKQLQERAKVKMVMIQDGPQNTGADKPLRITGDPYKVQQAKEMVLELIRD [G33K], the abundance fitness rises from -1.12 ± 0.22 to -0.097 ± 0.036.

Going from GNAVQEIMIPASKAGLVIGKGGETIKQLQERALVKMVMIQDGPQNTGADKPLRITGDPYKVQQAKEMVLELIRD [G33L] to GNAVQEIMIPASKAGLVIGKGGETIKQLQERAMVKMVMIQDGPQNTGADKPLRITGDPYKVQQAKEMVLELIRD [G33M], the abundance fitness rises from -0.354 ± 0.032 to -0.137 ± 0.041.

Compared with GNAVQEIMIPASKAGLVIGKGGETIKQLQERANVKMVMIQDGPQNTGADKPLRITGDPYKVQQAKEMVLELIRD [G33N], GNAVQEIMIPASKAGLVIGKGGETIKQLQERAPVKMVMIQDGPQNTGADKPLRITGDPYKVQQAKEMVLELIRD [G33P] is lower in abundance fitness: -0.063 ± 0.046 for the first, -0.801 ± 0.058 for the second.

GNAVQEIMIPASKAGLVIGKGGETIKQLQERAQVKMVMIQDGPQNTGADKPLRITGDPYKVQQAKEMVLELIRD [G33Q] and GNAVQEIMIPASKAGLVIGKGGETIKQLQERARVKMVMIQDGPQNTGADKPLRITGDPYKVQQAKEMVLELIRD [G33R] are within error of each other in abundance fitness: -0.057 ± 0.042 for the first, -0.119 ± 0.027 for the second.

Compared with GNAVQEIMIPASKAGLVIGKGGETIKQLQERASVKMVMIQDGPQNTGADKPLRITGDPYKVQQAKEMVLELIRD [G33S], GNAVQEIMIPASKAGLVIGKGGETIKQLQERATVKMVMIQDGPQNTGADKPLRITGDPYKVQQAKEMVLELIRD [G33T] is lower in abundance fitness: -0.123 ± 0.032 for the first, -0.29 ± 0.039 for the second.

First: GNAVQEIMIPASKAGLVIGKGGETIKQLQERAVVKMVMIQDGPQNTGADKPLRITGDPYKVQQAKEMVLELIRD [G33V]
Second: GNAVQEIMIPASKAGLVIGKGGETIKQLQERAWVKMVMIQDGPQNTGADKPLRITGDPYKVQQAKEMVLELIRD [G33W]
The abundance fitness of the first is higher: -0.596 ± 0.035 for the first, -0.807 ± 0.046 for the second.

Going from GNAVQEIMIPASKAGLVIGKGGETIKQLQERAYVKMVMIQDGPQNTGADKPLRITGDPYKVQQAKEMVLELIRD [G33Y] to GNAVQEIMIPASKAGLVIGKGGETIKQLQERAGAKMVMIQDGPQNTGADKPLRITGDPYKVQQAKEMVLELIRD [V34A], the abundance fitness rises from -0.534 ± 0.063 to -0.153 ± 0.033.

GNAVQEIMIPASKAGLVIGKGGETIKQLQERAGCKMVMIQDGPQNTGADKPLRITGDPYKVQQAKEMVLELIRD [V34C] gave an abundance fitness of -0.086 ± 0.043.
